Data as given in paper doi:10.1101/2024.08.01.606258.

Biological target: avGFP [GFP: P42212]
Assay: SEC

Substance: avGFP (from UniProt P42212 1-237) (natural protein)
- stoichiometry N: 2
